The target in the test is pyruvate kinase M2 (mouse (endogenous in kidney tissue)) (UniProt P52480). Briefly: cross-linking; mouse kidney tissue incubated in 250 uM disuccinimidyl suberate (DSS) for 30 min at room temperature, 8% SDS-PAGE, Western blot for PKM2; control mice, HFD-STZ-induced DN mice, and mice given acrolein scavengers (NAC, hydralazine, carnosine).

What is called stoichiometry N is the number of molecules, sites or subunits per partner or assembly.

Several values for one entry are separate records, joined by “and”; a condition that tells them apart may be missing. Equal values may be shown once.

Sequence of pyruvate kinase M2, P52480 1-531 (enzyme) (P52480 whole entry): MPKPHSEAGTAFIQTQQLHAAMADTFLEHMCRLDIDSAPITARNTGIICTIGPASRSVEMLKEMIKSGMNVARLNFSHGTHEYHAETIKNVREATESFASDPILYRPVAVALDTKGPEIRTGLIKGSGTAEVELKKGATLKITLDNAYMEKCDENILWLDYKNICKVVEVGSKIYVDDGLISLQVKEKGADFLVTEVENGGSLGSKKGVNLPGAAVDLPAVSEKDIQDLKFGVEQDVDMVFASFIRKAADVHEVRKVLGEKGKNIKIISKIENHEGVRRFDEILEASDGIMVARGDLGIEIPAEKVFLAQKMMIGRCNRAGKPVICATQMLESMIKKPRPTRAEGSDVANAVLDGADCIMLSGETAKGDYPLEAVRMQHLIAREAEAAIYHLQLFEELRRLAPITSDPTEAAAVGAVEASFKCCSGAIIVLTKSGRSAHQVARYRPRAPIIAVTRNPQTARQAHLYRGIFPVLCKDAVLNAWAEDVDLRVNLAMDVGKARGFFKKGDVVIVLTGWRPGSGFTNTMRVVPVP

“pyruvate kinase M2, P52480 1-531 (enzyme)”: the stoichiometry N was 2 and 4.
